Data taken from US12365732 (23ANDME, dated 2025).
Changes are numbered by the printed parent chain. Names and notes keep the numbering of the source.

T1: hu-CD96 isoform 2 on CHO cells (human, UniProt P40200 22-585)
T1 construct: also called CHO-CD96 (isoform 2); CD96-CHOs
T1 sequence: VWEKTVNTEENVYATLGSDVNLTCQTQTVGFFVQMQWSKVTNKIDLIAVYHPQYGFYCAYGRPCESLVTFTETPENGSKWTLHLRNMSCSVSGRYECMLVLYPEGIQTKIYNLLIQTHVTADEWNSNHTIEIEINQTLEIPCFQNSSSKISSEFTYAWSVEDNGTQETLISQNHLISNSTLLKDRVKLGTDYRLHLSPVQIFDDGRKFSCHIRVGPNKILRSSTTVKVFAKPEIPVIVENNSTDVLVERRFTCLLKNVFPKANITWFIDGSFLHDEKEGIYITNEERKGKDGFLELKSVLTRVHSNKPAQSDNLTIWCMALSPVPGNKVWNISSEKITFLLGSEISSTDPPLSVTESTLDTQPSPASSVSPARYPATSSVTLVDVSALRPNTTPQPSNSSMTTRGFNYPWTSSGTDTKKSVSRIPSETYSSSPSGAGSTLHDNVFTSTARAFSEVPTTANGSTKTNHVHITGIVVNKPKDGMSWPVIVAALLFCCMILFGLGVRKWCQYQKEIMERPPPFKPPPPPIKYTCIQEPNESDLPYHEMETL

T2: cynomolgus monkey CD96 on cynomolgus monkey PBMCs (cynomolgus monkey, UniProt A0A2K5TWV6 22-569)
T2 construct: whole, on cells
T2 sequence: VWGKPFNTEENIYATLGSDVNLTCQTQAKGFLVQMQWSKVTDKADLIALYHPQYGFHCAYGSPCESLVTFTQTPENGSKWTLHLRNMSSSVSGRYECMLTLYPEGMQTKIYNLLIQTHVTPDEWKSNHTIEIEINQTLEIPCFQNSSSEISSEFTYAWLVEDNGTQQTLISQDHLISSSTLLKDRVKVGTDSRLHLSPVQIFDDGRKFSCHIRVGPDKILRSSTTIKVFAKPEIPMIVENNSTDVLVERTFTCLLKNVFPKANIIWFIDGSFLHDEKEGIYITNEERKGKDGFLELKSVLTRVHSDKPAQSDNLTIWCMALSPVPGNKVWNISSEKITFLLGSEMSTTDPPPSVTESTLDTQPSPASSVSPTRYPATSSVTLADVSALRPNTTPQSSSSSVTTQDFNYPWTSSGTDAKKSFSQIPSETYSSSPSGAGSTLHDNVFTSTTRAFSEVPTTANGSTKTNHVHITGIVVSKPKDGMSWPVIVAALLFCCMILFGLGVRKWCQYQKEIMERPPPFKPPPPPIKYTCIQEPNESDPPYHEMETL

B1: 9H4, purified hybridoma antibody (antibody, V domains shown)
VH: EVQLLETGGGLVKSGGSLKLSCAASGFTFSDYYMYWVRQTPEKRLEWVAAISDDGTYTYYPDSVKGRFTISRDNANNYLYLQMSSLKSEDTAIYYCAKAGSYDYFDVWGAGTTVTVSS
VL: DIVLTQSPASLAVSLGQRAIISCKASQSVTFADTGLMHWYQQKPGQQPKLLIYRASNLEVGVPTRFSGSGSGTDFTLNIHPVEEEDVATYYCQQSREYPWTFGGGTKLEIK
notes: murine hybridoma IgG
B2: 10G1 (clone 10G1.3G8), purified hybridoma antibody (antibody, V domains shown)
VH: QIQLVQSGPELKKPGETVKISCKASGYPFTTYGMSWVKQAPGKGLKWMGWINTDSGVPTYADDFKGRFAFSLETSANTAYLQINSLKNEDAATYFCARNIYYGWGNFDYWGQGTILTVSS
VL: DILMTQSPTTLSVTPGETVSLSCRASQDIYRNLHWYQQKSQGTPRLLIKHASDSISGIPSRFTGSGSGTDFTLSINSVKPEDEGIYYCLQGYSMPYTFGGGTKLEIK
notes: murine hybridoma IgG
B3: 7E5, purified hybridoma antibody (antibody, V domains shown)
VH: QVQLKESGPGLVAPSQSLSIICTVSGFSLTNYGIHWIRQPPGKGLEWLGIIWAGGSTNYNSALMSRLTISKDNSKSQVFLKMNSLQTNDTAIYYCARVSMMGFAYWGQGTLVTVSA
VL: QAVVTQESALTTSPGETVTLTCRSSTGAVTTSNYANWVQEKPDHLFTGLIGGTNNRAPGVPARFSGSLIGDKAALTITGAQTEDEAIYFCSLWYGSHWVFGGGTKLTVL
notes: murine hybridoma IgG
B4: mAb1.v7.NGS9 IgG (antibody, V domains shown)
VH: EVQLVQSGAEVKKPGASVKVSCKASGFTFTNNFMHWVRQAPGQGLEWIGMIHANSGITNINEKFKNRVTMTTDTSTSTAYMELRSLRSEDTAVYYCRSDGVYEGYFDYWGQGTLVTVSS
VL: DIQLTQSPSSLSASVGDRVTITCKASQNVGTAIVWYQQKPGKAPKVLIYSASTRYTGVPSRFSGSGSGTDFTLTISSLQPEDFATYYCQQYSSSPLTFGQGTKVEIKG
notes: human IgG1 N297G
B5: mAb1.v7.NGS11 IgG (antibody, V domains shown)
VH: B4 VH with M50F
VL: B4 VL
notes: human IgG1 N297G
B6: mAb1.v7.NGS10 IgG (antibody, V domains shown)
VH: B4 VH with M50F, V101I
VL: B4 VL
notes: human IgG1 N297G
B7: h10G1 IgG (humanized 10G1) (antibody, V domains shown)
VH: EIQLVQSGSELKKPGASVKVSCKASGYPFTTYGMSWVRQAPGQGLEWMGWINTDSGVPTYADDFKGRFVFSLDTSVSTAYLQISSLKAEDTAVYFCARNIYYGWGNFDYWGQGTLVTVSS
VL: EIVMTQSPDFQSVTPKEKVTITCRASQDIYRNLHWYQQKPDQTPKLLIKHASDSISGIPSRFSGSGSGTDFTLTINSLEAEDAAAYYCLQGYSMPYTFGGGTKVEIKG
notes: human IgG1 N297G

Tests used:
hu-CD96D1 D3-hFc = hu-CD96D1 D3-hFc (human); assay: ELISA, coated CD96D1D3-hFc
Experimental: (§1) CD96 binding of purified hybridoma antibodies: The hu-CD96 and cy-CD96 antigen binding ELISA was performed on the purified hybridoma antibodies. Briefly, 96-well MAXISORP® flat bottom plates (Thermo Fisher Scientific, Waltham, MA; Cat #439454) were coated overnight at 4° C. with 0.5 µg/mL of hu-CD96D1 D3-hFc and cynomolgus monkey CD96D1 D3-hFc in PBS. After removing the coating solution, unspecific binding was blocked by PBS containing 1% bovine serum albumin (blocking buffer) and incubation at room temperature for one hour. Plates were then washed three times with PBS and 0.05% TWEEN®-20 (wash buffer). Serial dilution of purified antibodies in PBS containing 0.5% BSA and 0.05% Tween 20 (ELISA buffer) was added to individual wells followed by incubation at room temperature for one hour with agitation. Plates were washed three times with wash buffer, then 100 µL/well of anti-mouse IgG-HRP (Thermo Fisher Scientific, Waltham, MA; Cat #626520) in ELISA buffer was added. […] Enzymatic color development was stopped with 50 µL/well of TMB stop solution (VWR/Avantor, Radnor, PA, USA; Cat #95059-200). Plates were analyzed with a SpectraMax i3X plate reader (Molecular Devices LLC, San Jose, CA, USA) at 450 nm.

[1] = target: T3, cynomolgus monkey CD96D1 D3-hFc (cynomolgus monkey); assay: ELISA, coated CD96D1D3-hFc
T3 construct: also called cy-CD96D1 D3
Experimental: as §1

[2] = target: T1, hu-CD96 isoform 2 on CHO cells; assay: FACS, CD155-Fc-FLAG 10 nM, Ab 100 nM
Experimental: CHO cells stably expressing isoform 2 of hu-CD96 (Origene, catalog #RC221005) were incubated with anti-CD96 antibodies for 20 minutes at 4° C. The cells were washed, and then incubated with 10 nM human CD155-Fc-FLAG for 30 minutes at 4° C. Cells were washed, and then human CD155-Fc-FLAG binding was detected by incubation with anti-FLAG-APC (Columbia Biosciences, catalog #D3-1718-1MG) for 20 minutes at 4° C. Cell binding was analyzed by flow cytometry with a CytoFLEX (Beckman Coulter). CD155 binding is represented as median fluorescence intensity (MedFI).
As shown in Table 20 (below), the anti-CD96 antibodies, mAb1.v7.NGS8, mAb1.v7.NGS9, mAb1.v7.NGS10, mAb1.v7.NGS11, and h10G1 inhibited soluble hu-CD155 binding to CD96-expressing CHO cells dose-dependently and potently. The antibody NK92.39 (Fuchs et al., 2004; Biolegend catalog #338405) inhibited receptor binding similarly.

[3] = target: T2, cynomolgus monkey CD96 on cynomolgus …; assay: FACS, Ab 0.0256 nM
Experimental: The ability of the anti-CD96 antibodies to bind primary immune cells from human and cynomolgus monkey with lower level of receptor expression was measured. Human PBMCs (StemCell Technologies, catalog #70025) and cynomolgus monkey PBMCs (Primate Biologicals, catalog #CM-MC) were incubated with human TruStain FcX (Biolegend, catalog #422302) for 10 minutes at 4° C., followed by incubation with an anti-CD96 antibody for 20 minutes at 4° C. Cells were washed and the anti-CD96 antibody binding was detected by incubation with anti-mouse IgG-PE (Thermo Fisher, catalog #M30204) or anti-human IgG (Fab) 2-PE (Thermo Fisher, catalog #H10104) for 20 minutes at 4° C. Cells were washed, and immune subtypes were labeled with anti-CD3 (BD, catalog #557705), anti-CD4 (Biolegend, catalog #317424) and anti-CD8 (BD, catalog #557760) for 20 minutes at 4° C. Cell binding was analyzed by flow cytometry with a CytoFLEX (Beckman Coulter). Binding curves were calculated as a percentage of cells positive for bound antibody in the cell type of interest.

Binder	EC50 (hu-CD96D1 D3-hFc)	binding result [1]	EC50 [1]	CD155-Fc binding (MedFI) [2]	% positive [3]
B1	0.24 nM	no binding	–	–	–
B2	0.03 nM	–	0.2 nM	–	–
B3	0.06 nM	–	0.53 nM	–	–
B4	–	–	–	4140 MedFI	19.7%
B5	–	–	–	4210 MedFI	41%
B6	–	–	–	5110 MedFI	37.2%
B7	–	–	–	5120 MedFI	16.8%
